# Measurements as given in article PMC4794571.
# How the values were obtained:
# [1] = biological target: Cy3-IgE (direct labeling) (UniProt P01854); assay: microarray fluorescence; conditions: direct label, PBSMTB for IgE microarrays (full recipe not in material; PBS-based wash: 8.1 mM Na2HPO4, 137 mM NaCl, 1 mM MgCl2, pH 7.4), temperature not stated, thrombin …
# [2] = biological target: biotin-IgE (indirect labeling) (UniProt P01854); assay: microarray fluorescence; conditions: indirect label, PBSMTB for IgE microarrays (full recipe not in material; PBS-based wash: 8.1 mM Na2HPO4, 137 mM NaCl, 1 mM MgCl2, pH 7.4), temperature not stated, thrombin …
# [3] = biological target: IgE (cited assays) (human) (UniProt P01854); assay: filter binding; conditions: PBSMTB for IgE microarrays (full recipe not in material; PBS-based wash: 8.1 mM Na2HPO4, 137 mM NaCl, 1 mM MgCl2, pH 7.4), temperature not stated, thrombin …, cited from earlier work
# [4] = biological target: IgE (cited assays) (human) (UniProt P01854); assay: fluorescence anisotropy; conditions: not immobilized; PBSMTB for IgE microarrays (full recipe not in material; PBS-based wash: 8.1 mM Na2HPO4, 137 mM NaCl, 1 mM MgCl2, pH 7.4); temperature not stated; thrombin …; cited from earlier work
# [5] = biological target: IgE (cited assays) (human) (UniProt P01854); assay: SPR; conditions: PBSMTB for IgE microarrays (full recipe not in material; PBS-based wash: 8.1 mM Na2HPO4, 137 mM NaCl, 1 mM MgCl2, pH 7.4), temperature not stated, thrombin …, cited from earlier work
# [6] = T linker, T linker to array surface
# [7] = A linker, A linker to array surface
# [8] = C linker, C linker to array surface
# [9] = G linker, G linker to array surface
sequence,measurement,setting,value
AGGGCACGTTTATCCGTCCCTCCTAGTGGCGTGCCCT [IgE_D17-4_DM1_37],Kd,[1]; [6],82.3 nM
same,Kd,[2]; [6],29.9 nM
CACGTTTATCCGTCCCTCCTAGTGGCGTG [IgE_17-1 (IgE_D17-1)],Kd,[2]; [6],73.4 nM
"CACGTTTATCCGTCCCTCCTAGTGGCGTG [IgE_17-1, cited assay]",Kd,[3]; solution,82 nM
"GGGGCACGTTTATCCGTCCCTCCTAGTGGCGTGCCCC [IgE_17-4 (IgE_D17-4), T linker]",Kd,"[1]; D/P 2.4, T linker 10-15, T linker to array surface",66.3 nM
same,Kd,[2]; [6],29.5 nM
"GGGGCACGTTTATCCGTCCCTCCTAGTGGCGTGCCCC [IgE_17-4, A linker]",Kd,[1]; [7],63.7 nM
same,Kd,[2]; [7],30.9 nM
"GGGGCACGTTTATCCGTCCCTCCTAGTGGCGTGCCCC [IgE_17-4, C linker]",Kd,[1]; [8],61.8 nM
same,Kd,[2]; [8],30.8 nM
"GGGGCACGTTTATCCGTCCCTCCTAGTGGCGTGCCCC [IgE_17-4, G linker]",Kd,[1]; [9],86.5 nM
same,Kd,[2]; [9],29.5 nM
"GGGGCACGTTTATCCGTCCCTCCTAGTGGCGTGCCCC [IgE_17-4, cited assays]",Kd,[4],15 nM
same,Kd,[5]; aptamer immobilized on surface,74.8 nM
same,Kd,[5]; aptamer not immobilized,4.7 nM
same,Kd,[3]; not immobilized,9 nM
TGGGCACGTTTATCCGTCCCTCCTAGTGGCGTGCCCC [IgE_D17-4_SM1],Kd,[1]; [6],79.9 nM
same,Kd,[2]; [6],28.8 nM
